Like-named read-outs stand apart in the source and are kept apart here.
How the values were obtained:
[1] = target: PD-L1 (human) (UniProt Q9NZQ7)
Target sequence in this assay (Q9NZQ7 19-290): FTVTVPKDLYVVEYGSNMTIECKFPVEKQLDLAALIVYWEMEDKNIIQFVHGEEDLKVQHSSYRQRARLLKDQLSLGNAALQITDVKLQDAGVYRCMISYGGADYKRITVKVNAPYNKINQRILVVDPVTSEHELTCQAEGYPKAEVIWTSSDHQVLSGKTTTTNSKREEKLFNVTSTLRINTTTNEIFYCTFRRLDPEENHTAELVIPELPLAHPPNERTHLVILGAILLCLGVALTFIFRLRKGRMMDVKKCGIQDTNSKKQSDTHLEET

[2] = target: CD28 (human) (UniProt P10747)
[3] = target: PD-L1 (human) (UniProt Q9NZQ7); experiment: flow cytometry, CHO cells expressing PD-L1
Target sequence in this assay (Q9NZQ7 19-290): as above

[4] = target: CD28 (human) (UniProt P10747); experiment: flow cytometry, Jurkat cells (CD28)
[5] = target: PD-L1 (human) (UniProt Q9NZQ7); experiment: flow cytometry, CHO cells stably expressing PD-L1
[6] = target: CD28 (human) (UniProt P10747); experiment: flow cytometry, Jurkat cells (CD28); remark: listed apart in the source
[7] = target: human CTLA-4 (human) (UniProt P16410); experiment: flow cytometry, CHO cells stably expressing CTLA4
human CTLA-4 (human), sequence (P16410 36-223): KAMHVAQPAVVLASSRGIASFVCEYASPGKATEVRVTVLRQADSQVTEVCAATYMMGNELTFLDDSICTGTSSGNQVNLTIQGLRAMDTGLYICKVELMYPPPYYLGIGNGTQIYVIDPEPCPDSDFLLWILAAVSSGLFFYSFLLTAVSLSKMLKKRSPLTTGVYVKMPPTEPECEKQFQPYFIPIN

Row | Substance | Jurkat/IL2 reporter RLU at 50 nM, K562/OKT3/PD-L1 aAPC [1] [RLU] | Jurkat/IL2 reporter RLU at 50 nM, K562/OKT3/PD-L1 aAPC [2] [RLU] | MFI at 33.3 nM [5] [MFI] | MFI at 33.3 nM [6] [MFI] | MFI at 33.3 nM [7] [MFI] | also measured
1 | CD80 A26E/E35D/M43I/M47L/L85Q/K86E/R94W IgV-Fc (inert) (Fc fusion) | 498 | 498 | – | – | – | –
2 | CD80 A26E/E35D/M43T/M47L/L85Q/R94Q IgV-Fc (inert) (Fc fusion) | 526 | 526 | – | – | – | –
3 | CD80 A26E/Q33L/E35D/M47L IgV-Fc (inert) (Fc fusion) | 476 | 476 | – | – | – | –
4 | CD80 A26E/Q33L/E35D/M47L/L85Q IgV-Fc (inert) (Fc fusion) | 416 | 416 | – | – | – | –
5 | CD80 A26E/Q33R/E35D/M47L/L85Q IgV-Fc (inert) (Fc fusion) | 500 | 500 | – | – | – | –
6 | CD80 A26E/Q33R/E35D/M47L/L85Q/K86E IgV-Fc (inert) (Fc fusion) | 569 | 569 | – | – | – | –
7 | CD80 E7D/E35D/M47I/L97Q IgV-Fc (inert) (Fc fusion) | 1240 | 1240 | – | – | – | –
8 | CD80 E24D/Q33L/E35D/M47V/K54R/L85Q IgV-Fc (inert) (Fc fusion) | 3240 | 3240 | – | – | – | –
9 | CD80 E35D/D46E/M47L/V68M/A71G/Y87C/K93R IgV-Fc (Fc fusion) | – | – | – | – | – | MFI at 33.3 nM [3]: 24300 MFI
10 | CD80 E35D/D46E/M47L/V68M/T79M/L85M IgV-Fc (Fc fusion) | – | – | – | – | – | MFI at 33.3 nM [4]: 403 MFI; MFI at 33.3 nM [3]: 8640 MFI
11 | CD80 E35D/D46E/M47V/L97Q IgV-Fc (inert) (Fc fusion) | 1090 | 1090 | – | – | – | –
12 | CD80 E35D/M47I/E77A/L85Q/R94W IgV-Fc (inert) (Fc fusion) | 473 | 473 | – | – | – | –
13 | CD80 E35D/M47I/K54R/L85E IgV-Fc (inert) (Fc fusion) | 602 | 602 | – | – | – | –
14 | CD80 E35D/M47I/V68M/Y87N IgV-Fc (Fc fusion) | – | – | – | – | – | MFI at 33.3 nM [3]: 13100 MFI
15 | CD80 E35D/M47L/A71G/L97Q IgV-Fc (inert) (Fc fusion) | 2160 | 2160 | – | – | – | –
16 | CD80 E35D/M47V/A71G/L85M/L97Q IgV-Fc (inert) (Fc fusion) | 576 | 576 | – | – | – | –
17 | CD80 E35D/M47V/T62A/A71G/V83A/Y87H/L97M IgV-Fc (inert) (Fc fusion) | 438 | 438 | – | – | – | –
18 | CD80 ECD-Fc (Fc fusion) | – | – | 6380 | 42.3 | – | –
19 | CD80 H18L/V22A/E35D/M47L/N48T/L85Q IgV-Fc (inert) (Fc fusion) | 2650 | 2650 | – | – | – | –
20 | CD80 H18Y/A26E/Q33L/E35D/M47L/L85Q IgV-Fc (inert) (Fc fusion) | 408 | 408 | – | – | – | –
21 | CD80 H18Y/E35D/M47L IgV-Fc (inert) (Fc fusion) | 2980 | 2980 | – | – | – | –
22 | CD80 H18Y/E35D/V68M/L97Q IgV-Fc (inert) (Fc fusion) | 4340 | 4340 | – | – | – | –
23 | CD80 H18Y/Q33L/E35D/M47I IgV-Fc (inert) (Fc fusion) | 486 | 486 | – | – | – | –
24 | CD80 H18Y/V20A/Q33L/E35D/M47V/Y53F IgV-Fc (inert) (Fc fusion) | 566 | 566 | – | – | – | –
25 | CD80 IgV-Fc A26E/Q27R/E35D/M47L/N48Y/L85Q (Fc fusion) | – | – | – | – | – | MFI at 33.3 nM [4]: 78 MFI
26 | CD80 T13R/E35D/M47L/V68M IgV-Fc (Fc fusion) | – | – | – | – | – | MFI at 33.3 nM [4]: 15.6 MFI; MFI at 33.3 nM [3]: 20000 MFI

Row | Substance | Jurkat/IL2 reporter RLU at 50 nM, K562/OKT3/PD-L1 aAPC [1] [RLU] | Jurkat/IL2 reporter RLU at 50 nM, K562/OKT3/PD-L1 aAPC [2] [RLU] | MFI at 33.3 nM [5] [MFI] | MFI at 33.3 nM [6] [MFI] | MFI at 33.3 nM [7] [MFI] | also measured
27 | CD80 V22D/E24D/E35D/M47L/V68M IgV-Fc (Fc fusion) | – | – | – | – | – | MFI at 33.3 nM [4]: 1250 MFI; MFI at 33.3 nM [3]: 15400 MFI
28 | CD80 V22D/E24D/E35D/M47L/V68M/L85M/D90G IgV-Fc (Fc fusion) | – | – | – | – | – | MFI at 33.3 nM [4]: 1180 MFI; MFI at 33.3 nM [3]: 19000 MFI
29 | variant CD80 IgV-Fc A26E/E35D/M47L/A71G/D90G (Fc fusion) | – | – | 14600 | 1270 | 22100 | –
30 | variant CD80 IgV-Fc A26E/E35D/M47L/V68M/A71G (Fc fusion) | – | – | 27800 | 417 | 24600 | Fold change to WT CD80 [7]: 18.1 fold; Fold change to WT CD80 [5]: 638 fold
31 | variant CD80 IgV-Fc A26E/E35D/M47L/V68M/D90G (Fc fusion) | – | – | 25000 | – | 26700 | –
32 | variant CD80 IgV-Fc A26E/E35D/V68M/A71G (Fc fusion) | – | – | 12600 | 135 | – | –
33 | variant CD80 IgV-Fc A26E/M47L/V68M/A71G (Fc fusion) | – | – | 1670 | 98.7 | 3230 | –
34 | variant CD80 IgV-Fc A26E/M47L/V68M/A71G/D90G (Fc fusion) | – | – | 28100 | 2790 | 21800 | –
35 | variant CD80 IgV-Fc A26E/M47L/V68M/D90G (Fc fusion) | – | – | 10600 | 2580 | 21900 | –
36 | variant CD80 IgV-Fc E35D/M47L/V68M/A71G (Fc fusion) | – | – | 27900 | 806 | 24700 | Fold change to WT CD80 [7]: 18.1 fold; Fold change to WT CD80 [5]: 639 fold
37 | variant CD80 IgV-Fc E35D/M47L/V68M/A71G/D90G (Fc fusion) | – | – | 29400 | 3070 | 26000 | –
38 | variant CD80 IgV-Fc E35D/V68M/A71G/D90G (Fc fusion) | – | – | 28000 | 2840 | 23300 | –
39 | variant CD80 IgV-Fc H18Y/A26E/A71G/D90G (Fc fusion) | – | – | – | 2000 | 19900 | –
40 | variant CD80 IgV-Fc H18Y/A26E/E35D/D90G (Fc fusion) | – | – | 10000 | – | – | –
41 | variant CD80 IgV-Fc H18Y/A26E/E35D/M47L/A71G/D90G (Fc fusion) | – | – | 16900 | – | – | –
42 | variant CD80 IgV-Fc H18Y/A26E/E35D/M47L/V68M/A71G (Fc fusion) | – | – | 28500 | 526 | 25400 | Fold change to WT CD80 [7]: 18.7 fold; Fold change to WT CD80 [5]: 655 fold
43 | variant CD80 IgV-Fc H18Y/A26E/E35D/V68M (Fc fusion) | – | – | 17900 | 372 | 20900 | –
44 | variant CD80 IgV-Fc H18Y/A26E/M47L/V68M/A71G/D90G (Fc fusion) | – | – | 31700 | 2560 | 121 | Fold change to WT CD80 [5]: 727 fold; Fold change to WT CD80 [6]: 58.2 fold
45 | variant CD80 IgV-Fc H18Y/E35D/M47L/A71G (Fc fusion) | – | – | 11900 | – | 22400 | –
46 | variant CD80 IgV-Fc H18Y/E35D/M47L/A71G/D90G (Fc fusion) | – | – | 13300 | 1270 | 23000 | Fold change to WT CD80 [7]: 16.9 fold; Fold change to WT CD80 [5]: 306 fold
47 | variant CD80 IgV-Fc H18Y/E35D/M47L/V68M/D90G (Fc fusion) | – | – | 27400 | 3390 | – | –
48 | variant CD80 IgV-Fc H18Y/E35D/V68M/A71G/D90G (Fc fusion) | – | – | 30100 | 2720 | 24300 | –
49 | variant CD80 IgV-Fc H18Y/M47L/A71G/D90G (Fc fusion) | – | – | 10800 | 1600 | 18200 | –
50 | variant CD80 IgV-Fc H18Y/M47L/V68M/A71G (Fc fusion) | – | – | 28500 | 1190 | – | –
51 | variant CD80 IgV-Fc H18Y/M47L/V68M/A71G/D90G (Fc fusion) | – | – | 29500 | – | 22200 | –

From US20220177587A1, “METHODS AND USES OF VARIANT CD80 FUSION PROTEINS AND RELATED CONSTRUCTS” (Alpine Immune Sciences, Inc., priority 2018, published 2022)
